Results published in a protein production outcome set (Wang et al. 2014).

Assay: label from the status in PepcDB records
In the case of “STAFFFRRMSPADKRKLLDELRSIYRTIVLEYFNTDAKVNERIDEFVSKAFFADISVSQVLEIHVELMDTFSKQLKLEGRSEDILLDYRLTLIDVIAHLCEMYRRSIPREV”, the protein production is reported as “not failed”. In the case of “STFYVEFNRKDSDKTLAKAFQNKKIRQALSLAINRKSYVNNTLGNGSTVSKGYVSEDLAKNPTTGKDFTTDAAVPSAVDYNLTKAKKLWKEGLKEIGETKLNIKLLSDDTDAGKKATEFIQGGWEKLPGLTVTNQNVPFKTRLQRSQNGNFDTVISAWNADFTDPISFLSLFTSDNSYNNGKYDSAAYDDAVKKAEGADANNKTARWADMVAAEKQLMNDQGVIPIYQQASATLTRSNLKGIIYNTAGSNYNFKYMSVK”, the protein production is reported as “failed”. For “STVVEIKSQDQFTQLTTTNAANKLIVLYFKAQWADPCKTMSQVLEAVSEKVRQEDVRFLSIDADEHPEISDLFEIAAVPYFVFIQNGTIVKEISAADPKEFVKSLEILSNASASLANNAKGPKSTSDEESSGSSDDEEDETEEEINARLVKLVQAAPVMLFMKGSPSEPKCGFSRQLVGILREHQIRFGFFDILRDENVRQSLKKFSDWPTFPQLYINGEFQGGLDIIKESIEEDPEYFQHALQ”, the protein production was “not failed”. With “SVICCAAVNCSNRQGKGEKRAVSFHRFPLKDSKRLIQWLKAVQRDNWTPTKYSFLCSEHFTKDSFSKRLEDQHRLLKPTAVPSIFHLTEKKRGAGGHGRTRRKDASKATGGVRGHSSAATGRGAAGWSPSSSGNPMAKPESRRLKQAALQGEATPRAAQEAASQEQAQQALERTPGDGLATMVAGSQGKAEASATDAGDESATSSIEGGVTDKSGISMDDFTPPGSGACKFIGSLHSYSFSSKHTRERPSVPREPIDRKRLKKDVEPSCSGSSLGPDKGLAQSPPSSSLTATPQKPSQSPSAPPADVTPKPATEAVQSEHSDASPMSINEVILSASGACKLIDSLHSYCFSSRQNKSQVCCLREQVEKKNGELKSLRQRVSRSDSQVRKLQEKLDELRRVSVPYPSSLLSPSREPPKMNPVVEPLSWMLGTWLSDPPGAGTYPTLQPFQYLEEVHISHVGQPMLNFSFNSFHPDTRKPMHRECGFIRLKPDTNKVAFVSAQNTGVVEVEEGEVNGQELCIASHSIARISFAKEPHVEQITRKFRLNSEGKLEQTVSMATTTQPMTQHLHVTYKKVTP” the protein production was “not failed”. For “SVSLVGPAPWGFRLQGGKDFNMPLTISSLKDGGKASQAHVRIGDVVLSIDGISAQGMTHLEAQNKIKACTGSLNMTLQRASAAAKSEPVS”, the protein production was “not failed”. For “SVTFSYLAETDYPVFTLGGSTADAARRLAASGCACAPVLDGERYLGMVHLSRLLEGRKGWPTVKEKLGEELLETVRSYRPGEQLFDNLISVAAAKCSVVPLADEDGRYEGVVSRKRILGFLAERI”, the protein production was “not failed”. With “SYASETASTQGLPALELDPEELLAQVQLLRAAVEGSRRESRELVGALERERRLNLEMRQRFERQFAAVSDQLLQLNHLQKESEALLQSLQEQLNEAELQKNAAQRELACVQRQLSLARAEADAGKRVLTTIAEKEALLRKTSQANADLQQIVMHLQAELRNSELQPSTSNASEERLHEAEIPSLADRDAYQTLQQTIEKLSAERDMWYHECARAKEESLRLQQDAERLRGLLDEQQRVHTTTQTLLQDRHLLMRRIIAALAEKYLMEKLPNQHYTQEIDSSPFQARGGTSVQEAHKHERLRRARSF” the protein production was “not failed”. In the case of “SYMYDRDGSLVSEIVSDHENRVLVPFNKIPEEVKQIFLTSEDRHFYEHKGFDFMGMVPPTASNVKDKKIDQGASTITQQLSRNLYLSHERSFSRKLTELAYSYQLEKKYTKNEILEAYLNTIYFNNGVYGVGSAAQFYFSKPLKSLTVGEMAFICAIPNNPTLYDPLKHF”, the protein production is reported as “failed”. With “TAALSGAANLGAPLSNDFCTISLSDKWRGWDEIEEKLRAAAISGFVVVLYNCWRDYERAVDVLREERADDVPAAIVNDSGRGEAGRNLDDETETITTLGELPEHDDKVGGMGSSIVVGTHETEV” the protein production was “failed”. In the case of “TAQLTIEAVPSNAAEGKEVLLLVHNLPQDPRGYNWYKGETVDANRRIIGYVISNQQITPGPAYSNRETIYPNASLLMRNVTRNDTGSYTLQVIKLNLMSEEVTGQFSVHPETPKPSI”, the protein production is reported as “not failed”. In the case of “TATLILDDGLAIRYANPAAELLFSQSAKRIVEQSLSQLIQHASLDLALLTQPLQSGQSITDSDVTFVVDGRPLMLEVTVSPITWQRQLMLLVEMRK”, the protein production is reported as “not failed”. With “TDVSSWIVYPSGKVYVAAVRLERVVLTCELCRPWAEVRWTKDGEEVVESPALLLQKEDTVRRLVLPAVQLEDSGEYLCEIDDESASFTVTVTEPPVRIIY” the protein production was “not failed”. For “TEASSLVGKLETDVEIKASADKFHHMFAGKPHHVSKASPGNIQGCDLHEGDWGTVGSIVFWNYVHDGEAKVAKERIEAVEPDKNLITFRVIEGDLMKEYKSFLLTIQVTPKPGGPGSIVHWHLEYEKISEEVAHPETLLQFCVEVSKEIDEHLLAEE”, the protein production was “not failed”. With “TEETAKVVPMAVITPAINQLTDQEKAEGWALLFDGKTTKGWRGAHKDAFPDHGWMVKDGELIVQKSDGSESTNGGDIVTEGEYSAFEFSVDFKITEGANSGIKYFVTEQEKQKGSAYGLEFQLLDDAKHPDAKLYTTFPGSRTLGSLYDLKKSENIHFNGVGEWNTAVVKVFPNNHVEHWLNGVKVLEYERGSKEFRDLVKGSKYADPSYNAGGAFGEAPKGHILLQDHGDEVAFRNIKVKELK” the protein production was “not failed”. With “TFYSVRMRASMNGSHEDGGKHISGGERLIPFHEMKHTVNALLEKGLSHSRGKPDFMQIQFEEVHESIKTIQPLPVHTNEVSCPEEGQKLARLLLEKEGVSRDVIEKAYEQIPEWSDVRGAVLFDIHTGKRMDQTKEKGVRVSRMDWPDANFEKWALHSHVPAHSRIKEALALASKVSRHPAVVAELCWSDDPDYITGYVAGKKMGYQRITAMKEYGTEEGCRVFFIDGSNDVNTYIHDLEKQPILIE” the protein production was “not failed”. For “TGEPGASDLESRNNRLQLALQLNQRTQQEQLEHLERVRGQQDLILRLARHRYSAGNSLLEAAQLITQSACEIYKVDCASIWHLEDQRLEPIIAWYRDAQEHRQPEAIDASRFPDYLDALHASRAIDAHNAGHDPRTRALAQSMRPENKAMLDASIRVDGQVIGVLCLEQSGQPRAWQSDEIAFAGELADQFAQVITNHKRRAAASALHLFQRAVEQSA”, the protein production was “failed”. With “TGQDAYGQVTEMQYVVYAFSKVETIFSDMYAFAALKTDGSVVTWGYSDYGGDSSSVAGQLTSGVKVIDSTSSAFAAIKEDGSVVTWGDSPYGGDSSSVAGKLTSGVKVIYSNSSAFAAVKQDGSVVTWGSYGGDSSSVAGQLTSGVKVIYSTDSEFGAFAAVKEDGSVVTWGNSPYGGDSSSVAGQLTSGVKVIYSTNNAFAAVKEDGSVVTWGDSGAGGDSSSVAGQLT” the protein production was “failed”. In the case of “TIFKDIYQLWFTQYKQTVKESTWVTTQRLFRLHILPIFSDYRIAKISIKDCQKAINQWFNAGLAKYHTLMNYVAKVLDYAINIDLISENPAKRVIVPVNKNDRS”, the protein production is reported as “failed”. In the case of “TISQRPYRDRVIHLLALKAYKKPELLARLQKDGVNQKDKNSLGAILQQVANLNSKDLSYTLKDYVFKELQRDWPGYSEIDRRSLESVLSRKLN”, the protein production is reported as “not failed”. In the case of “TLDAPLQRRMEDLLMGWRARLPERTSAAILVVEAENMAVRAYVGSVDISDVKRFGHVDMVTALRSPGSTLKPFLYGMAMDAGLIHSESLMQDVPRRYGDYRPGNFSTGFGGPVAASSALSMSLNLPAVQLLEVYGPKRFAAELRNGGVPLTLPPLAEPNLALILGGAGSRLEDLVAGYSAFARGGRSADVRLQPQDRLRERRMMSPGAAWIIRRILSGQSRPDIDPRAELVQRPQLAWKTGTSYGFRDAWAIGVGPRFLVGVWIGRPDGTPVPGQFGLASAAPLMLQVHDVLVNRDSQRGI”, the protein production is reported as “failed”. With “TLDLPMQMAAERALADVPQQAAIVALRPSTGEVLAVAQNAPADALGPIALTGLYPPGSTFKTVTTSAALQAGAATPDTVLPCPGTENIEGRQIPNDDEFDLGAVPLHTAFARSCNTTMGRLAVGLPPDALQQAALQFGLGVDYVTPGLTTVTGNVPVADSPAARVESGIGQGQVTATPFGMAMVAASIANGSTPSPMIVQGQPGTADKTAPTVPANVTSDLRTMMRETVTGGTATALQDIPGLLGKTGTAESGNGPAHGWFVGIKDDLAFAVFIATGDSSAPAVQAAGRFLR” the protein production was “failed”. With “TLTVNGPPIISSTQTQHALHGEKGQIKCFIRSTPPPDRIAWSWKENVLESGTSGRYTVETISTEEGVISTLTISNIVRADFQTIYNCTAWNSFGSDTEIIRLKEQGSEM” the protein production was “not failed”. For “TNHKGEKINVAVKTCKKDCTLDNKEKFMSEAVIMKNLDHPHIVKLIGIIEEEPTWIIMELYPYGELGHYLERNKNSLKVLTLVLYSLQICKAMAYLESINCVHRDIAVRNILVASPECVKLGDFGLSRYIEDEDYYKASVTRLPIKWMSPESINFRRFTTASDVWMFAVCMWEILSFGKQPFFWLENKDVIGVLEKGDRLPKPDLCPPVLYTLMTRCWDYDPSDRPRFTELVCSLSDVYQMEKDIAMEQERNARYRTPKILEPTAFQE”, the protein production was “failed”. For “TPAVVERADADSQYEILVGGQRAGLTAYRDLGAQRVFFHTEIDEAFAGQGLASQLVQQALVDVRASGMRIVPVCPYVAKFLKRHDEFADITDPVTPEVLRWLEAQL”, the protein production was “failed”. With “TPTEGLTIGDKAPTFTICGEKQLIDLKDLRGKYVLLSFWASYDALSRMQNATLNHAVAQADNVEMVSVSFDEYKSIFNETIKKDQISTSNCFVELAGVSSDLYQTYRLKRGFKNFLLDENGVIVAKDVTVSELSS” the protein production was “failed”. With “TPVVFLGAGNLATNLAKALYRKGFRIMQVYSRTEESARTLANEVEAEYITDLKDVSNEARLYIISLKDAAFVELLPQITDGKQHALLVHTAGSIPMNIWEGHAERYGVFYPMQTFSKQREVDFREVPFFIEAKRPEDTELLKAVAGTLSDKVYEAD” the protein production was “failed”. With “TRGSAQMQPYFEELLLSLGPILKNITNSMVISGHTDSTPYAGSLFTNWELSSERALLARRVLERGGVKRDQVIQVTGMADQVPYITSDTAAAANRRIEALILTS” the protein production was “failed”. With “TRNTLDIRTVAHREADGSYRIKGEKFYSTGALFAHWVSIKALDDNGKTVMAFIERGTQGLRIVDDWSGFGQRTTASGTVLLDDVSVPAKQVVP” the protein production was “failed”. With “TSIRQGASNVICAYRRDEENMPGSRREVKNAKEEGVKFMFNLQPLGIEVDAYGKVSGVKVVKTALGEPDDAGRRRPEPVEGSEHVLPADAVIMAFGFQPHQMDWLTPFNVELDQWGRIKAPNNQEFQYQTSNEKIFAGGDAVRGSDLVVTAIDEGRKAAEGILDYLDV” the protein production was “failed”. With “TSITPSSQDICRICHCEGDDESPLITPCHCTGSLHFVHQACLQQWIKSSDTRCCELCKYEFIMETKL” the protein production was “not failed”. In the case of “TSSISPAKMANGTAGTKVALRKTKQAAEKISADKISKEALLECADLLSSALTEPVPNSQLVDTGHQLLDYCSGYVDCIPQTRNKFAFREA”, the protein production is reported as “failed”. In the case of “TSTDAAGGDSYRVGINQLVQHPALDAATTGFKEAFEEAGVDVTFDEQNANGEQGTALTISQQFASDNLDLVLAVATPAAQATAQNITDIPVLFTAVTDAVSAELVDSNEAPGGNVTGTSDIAPIEQQLELLQQLVPDAKSIGIVYASGEVNSQVQVDEVTKAAEPLGLSVNTQTVTTVNEIQQAVEALGDVDVIYVPTDNMVVSGISSLVQVAEQKQIPVIGAESGTVEGGALATLGIDYTELGRQTGEMALRILQDGEDPATMPVETATEFTYVINEDAAERQGVEIPQEILDKAERV”, the protein production is reported as “failed”. In the case of “TTAKPQQIQALMDEVTKQGNIVRELKAQKADKNEVAAEVAKLLDLKKQLAVAEGKPPEAPKGKKKK”, the protein production is reported as “not failed”.
